This is an account of results in the supplement of paper PMC12042874.

± gives the uncertainty stated by the source.

A short description of the series: amyloid nucleation score (Sup35N fusion, yeast selection) (log enrichment); library NNK1; higher = more nucleation; inactive = no reads after selection. A digest of the protocol:
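Nucleation score is defined as the DiMSum log enrichment of output over input reads, with centring on the mode score of non-aggregating sequences. A minimum of 100 input reads was required for each sequence. Reads came from Illumina sequencing of plasmid inserts from psi-negative yeast expressing Sup35N fused to peptides of 20 random codons, induced with 100 μM copper sulfate for 24 hours and grown 7 days at 30°C on medium lacking adenine and uracil.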
As for WSNPPITCSSVGINHHVSVV, the amyloid nucleation score was -0.171 ± 0.33.

Substance WSPTVAMLDGAVRGVAPATH registered an amyloid nucleation score of -0.7 ± 0.57.

In turn, WSSYGCAAEMDALVCHGDAF had an amyloid nucleation score of 1.47 ± 0.88.

In turn, WSVVLDFTVDLVHFGPVGRC had an amyloid nucleation score of 0.242 ± 0.36.

WSYMVL had an amyloid nucleation score of -0.645 ± 0.81.

In turn, WTCLKQEPLAWRWL gave an amyloid nucleation score of -0.093 ± 0.94.

As to WTQPVYLAEEGLRVLDNPKA, the amyloid nucleation score result is “inactive”.

Turning to WTVSWHIVGYSRVDVMKRTK, the amyloid nucleation score result is “inactive”.

WVLKL showed an amyloid nucleation score of 0.916 ± 0.54.

WVLYSIILCERCNHKGTSDG returned an amyloid nucleation score of 0.057 ± 0.53.

In turn, WVRLINSGGQSYFRCGEGRS gave an amyloid nucleation score of 0.654 ± 1.2.

With WVSANKSNCQMYSGTQTPCE, the amyloid nucleation score result was “inactive”.

In turn, WVSSEWISTC returned an amyloid nucleation score of -0.268 ± 1.4.

The substance WWKRKTSFVSRSYQVRFAQF registered an amyloid nucleation score of -0.058 ± 1.1.

WWVGCRACLPWDASSGKLLG: the amyloid nucleation score turned out to be 0.139 ± 0.34.

In turn, WYASRTTSIEYTKVYKCGGP gave an amyloid nucleation score of 0.599 ± 0.43.

Regarding WYDAK, the amyloid nucleation score was 0.286 ± 0.36.

In turn, WYIMGFTNDRVLRNLMCYTC came in with an amyloid nucleation score of 0.21 ± 0.35.

For the substance WYLGNAPRGATRA, the amyloid nucleation score was -0.229 ± 1.

Consider WYRLFALIGLAYLH, for which the amyloid nucleation score was 0.586 ± 0.56.

In the case of WYRVR, the amyloid nucleation score was -0.421 ± 1.1.

With WYVLDDLHWIQGCNIGIVGG, the amyloid nucleation score result is “inactive”.

Consider YAAVLLNFT, for which the amyloid nucleation score worked out at 1.09 ± 0.28.

The substance YADWLEDCETVP registered an amyloid nucleation score of -0.309 ± 0.45.

In turn, YAFGHFCTDADSFCGRCVIL had an amyloid nucleation score of 0.09 ± 0.76.

On to YAPLDDSMKLCHERGESLCM, for which the amyloid nucleation score is 0.186 ± 0.83.

Consider YAQPIFKLCRTG, for which the amyloid nucleation score was -0.921 ± 2.4.

As for YARSSFEDIVVFRDRFG, the amyloid nucleation score is 5.47 ± 0.092.

In the case of YASGLILIKSPFV, the amyloid nucleation score turned out to be 0.276 ± 0.34.

In the case of YASLNYLLQGRVRA, the amyloid nucleation score result was “inactive”.

Take YAYEIGFVILQFFNNRVFAL: the amyloid nucleation score entry is “inactive”.

YCDVSTYMSEHTISVAQAQS registered an amyloid nucleation score of 0.284 ± 0.41.

For YCHSVVFV, the amyloid nucleation score was 0.352 ± 1.

As for YCIASSVGWFVFVIWPLRKS, the amyloid nucleation score came to 0.065 ± 0.56.

In turn, YCLSYEDCYWYVSVSLRYLW registered an amyloid nucleation score of -0.477 ± 0.31.

Take YCMYMVWLKGK: the amyloid nucleation score was -0.747 ± 0.37.

YCPNLYVVDGCFVLNSKLIL registered an amyloid nucleation score of 5.63 ± 0.072.

As for YCSQPSAWSLRLNRSCPHNM, the amyloid nucleation score is -0.593 ± 1.1.

In turn, YCVKV yielded an amyloid nucleation score of 0.308 ± 0.62.

As for YCVVFYP, the amyloid nucleation score came out at 1.66 ± 0.61.

YCWCINNH had an amyloid nucleation score of 6.26 ± 0.084.

The substance YDGPLFVTFILI registered an amyloid nucleation score of 5.88 ± 0.077.

Consider YDNWVVGNYGLSAERICRVE, for which the amyloid nucleation score amounted to 0.085 ± 0.77.

Take YDYMVALFSRS: the amyloid nucleation score was -0.479 ± 0.66.

YEMVRGCLNMSMMTDKFRAE displayed an amyloid nucleation score of 0.851 ± 0.67.

In turn, YEPDELTWSHCTELTEALML registered an amyloid nucleation score of -0.433 ± 0.66.

For the substance YERVRPGAIHFRIETI, the amyloid nucleation score is 0.146 ± 0.53.

In the case of YEVIHICTNLEPIVRNCMGG, the amyloid nucleation score turned out to be 7.024 ± 0.066.

In turn, YFGDAGAFGFFSGLG displayed an amyloid nucleation score of 0.192 ± 0.61.

Regarding YFHPLTKLI, the amyloid nucleation score is -0.288 ± 0.82.

YFKFRGDDCENYWSVSGNEA: the amyloid nucleation score is 0.111 ± 1.2.

YFPVGWLTLGISPCGVGDLF registered an amyloid nucleation score of -0.151 ± 0.43.

The substance YFRCKFDRASIQHLIASRAH came in with an amyloid nucleation score of 3.18 ± 0.19.

On to YFRGNVNAWLLWSEICQVPF, for which the amyloid nucleation score is 0.677 ± 0.88.

YFTRFGHSELRSFMLVGTDM displayed an amyloid nucleation score of -0.007 ± 0.28.

In the case of YFWGKHTRFMISY, the amyloid nucleation score was 0.018 ± 0.36.

YFYDVMNLRCLVFNKSWFVL showed an amyloid nucleation score of 0.119 ± 0.51.

In turn, YGEHWSS displayed an amyloid nucleation score of 0.645 ± 1.2.

Turning to YGILSLRICSLENSLSA, the amyloid nucleation score was -1.34 ± 1.

For the substance YGINNLPI, the amyloid nucleation score is -1.23 ± 0.71.

On to YGNIGV, for which the amyloid nucleation score amounted to 0.231 ± 0.81.

The substance YGNLYCQTFLVWCRNIFLLI gave an amyloid nucleation score of 0.255 ± 0.41.

Take YGRGESMLHAGGNWEWTGQE: the amyloid nucleation score came to 0.09 ± 1.1.

Regarding YGRRGNFPSRWTSQHADIKF, the amyloid nucleation score was -0.308 ± 0.57.

In the case of YGSKICSIAFCPLLHVQNHP, the amyloid nucleation score worked out at 6.567 ± 0.055.

In turn, YGTVTGEIIYFLSYLVIMRM gave an amyloid nucleation score of -0.848 ± 0.56.

For YGVEMLPHISNAVTLFFGN, the amyloid nucleation score was 8.133 ± 0.057.

In turn, YHKRVNFSVRAGCCC returned an amyloid nucleation score of 1.29 ± 0.43.

Consider YHSSKGCIVCCR, for which the amyloid nucleation score is -0.391 ± 0.24.

YHTTFSNVPFKGHARNAQRG: the amyloid nucleation score came out at 0.172 ± 0.66.

YIAMYGARTPSCVVKPG: the amyloid nucleation score was -0.832 ± 0.55.

Consider YIDRRLRLRVG, for which the amyloid nucleation score entry was “inactive”.

Substance YIGFVGSGYLVVCVP showed an amyloid nucleation score of -2.02 ± 0.99.

On to YIGVRCG, for which the amyloid nucleation score came to 0.026 ± 0.51.

Take YIIWVYCVRMNSLHELLAMS: the amyloid nucleation score was 0.684 ± 0.8.

In the case of YINYHCFMIRFQFILVYRYQ, the amyloid nucleation score entry was “inactive”.

Substance YIRGYTIFSNWCFGLASGSA registered an amyloid nucleation score of -0.525 ± 0.83.

Turning to YIVVCSIRNLGRINLRGSDT, the amyloid nucleation score came out at 0.056 ± 0.8.

Take YKDFVGRTEFYRVGMFRLTE: the amyloid nucleation score was found to be 0.912 ± 0.43.

As for YKEQGTPHLLYADYEARRDG, the amyloid nucleation score is 0.791 ± 0.66.

YLGSWIKHRHAQWIARVRNR gave an amyloid nucleation score of 0.508 ± 0.29.

In the case of YLHWTQEDLRGNILGWSMWS, the amyloid nucleation score was found to be 2.32 ± 0.16.

Substance YLINRRIYVPVYLLALVISL came in with an amyloid nucleation score of -0.189 ± 0.4.

Regarding YLISYRLTPSYASVNDCFPD, the amyloid nucleation score is 0.203 ± 0.46.

YLKMFV showed an amyloid nucleation score of 0.01 ± 0.32.

YLNYWFR yielded an amyloid nucleation score of -0.341 ± 0.28.

Regarding YLQETLYNKWDWFGNHQGLM, the amyloid nucleation score was determined as 0.107 ± 0.26.

On to YLSHWQFAFIHLNANILL, for which the amyloid nucleation score was determined as 0.596 ± 1.2.

The substance YLSIKVITQGDWKCQVRVLW had an amyloid nucleation score of -0.332 ± 0.55.

For YLVILKITGGSDVPTDQMVW, the amyloid nucleation score is -0.88 ± 0.32.

The substance YLWADTRCLTGVW returned an amyloid nucleation score of 0.413 ± 1.1.

As for YLWLVWEDV, the amyloid nucleation score was determined as 0.721 ± 0.69.

Substance YLWMFCYMYREVAIRVNVGG gave an amyloid nucleation score of 0.1 ± 0.34.

The substance YMEGAGRYWRGQRKLPPCIA came in with an amyloid nucleation score of -0.414 ± 0.67.

The substance YMGPVV showed an amyloid nucleation score of -0.313 ± 0.33.

For the substance YMSWASLRKHFIFVV, the amyloid nucleation score was -0.282 ± 1.2.

YMWFMNRSILIIAELFVVFT showed an amyloid nucleation score of -0.287 ± 0.48.

On to YNGGCACMEAVMRFGGFFTL, for which the amyloid nucleation score is -0.066 ± 0.28.

As to YNKGIRRSDQGLKWTFLWPE, the amyloid nucleation score is -0.712 ± 0.53.

YNLGQVFSWINDTTSMMCGK yielded an amyloid nucleation score of 0.567 ± 0.32.

With YNMREVLSCKF, the amyloid nucleation score was -0.114 ± 0.59.

Substance YNMVYQCLIRCVAILFNLGR gave an amyloid nucleation score of -0.321 ± 0.65.

Take YNVQVLQVGGRLCRNKCSSC: the amyloid nucleation score came out at 7.825 ± 0.061.

Turning to YNYICTDSWILSTMVDFVHL, the amyloid nucleation score was -0.442 ± 0.92.

In the case of YPDNMWYLCMLCRGWMCETR, the amyloid nucleation score is -0.644 ± 0.62.

The substance YPGNSGSIY gave an amyloid nucleation score of -0.266 ± 0.91.

With YPLVFRIMDVVSPPPHWVLF, the amyloid nucleation score was -0.219 ± 1.2.

Consider YPMRTQRVASHMV, for which the amyloid nucleation score is -0.383 ± 0.58.

In turn, YPNVRSTYGDHSLLSNVAKG had an amyloid nucleation score of 0.132 ± 0.66.

YPSVLRINTTFASDLTG had an amyloid nucleation score of 0.894 ± 0.3.

YPTSCVYMCQQAKPFLVLIL gave an amyloid nucleation score of -0.655 ± 0.6.

As to YPYRV, the amyloid nucleation score was -1.12 ± 1.2.

In turn, YQNFPVKLITQKCLCWIDRC yielded an amyloid nucleation score of 0.216 ± 0.31.

YRCAYFL yielded an amyloid nucleation score of -0.25 ± 0.69.

For YRCGECNSSVMCMGLRCLWM, the amyloid nucleation score was 5.87 ± 0.059.

As to YRDSGDRNLGIAPI, the amyloid nucleation score was 0.449 ± 0.97.

YRFWEI came in with an amyloid nucleation score of -0.25 ± 0.35.

In turn, YRGIEAFCAGTNWTSPKWSR came in with an amyloid nucleation score of -0.169 ± 0.3.

Regarding YRGTLDNKMGFYIGYHHDRS, the amyloid nucleation score was -0.322 ± 0.56.

YRHPVMTWEPSRDLSFVLCL showed an amyloid nucleation score of 0.388 ± 0.84.

On to YRIHKIIKEPAEVTSLLRW, for which the amyloid nucleation score is -0.813 ± 0.52.

YRIKGVNWALPLCLALLSLR yielded an amyloid nucleation score of 0.068 ± 0.61.

Substance YRIPLARMWMVTLPL registered an amyloid nucleation score of -0.317 ± 0.8.

Regarding YRMSRLFTVVGAPVGSSLNF, the amyloid nucleation score was -1.58 ± 2.4.

As for YRPIDFLIPYSSVML, the amyloid nucleation score entry was “inactive”.

Turning to YRPLVTPALSLTLNRFKVDV, the amyloid nucleation score was 0.187 ± 0.35.

YRTVSDTVAY had an amyloid nucleation score of 1.42 ± 0.79.

Take YRVVLAECTSGYWEDIYSHI: the amyloid nucleation score was determined as 1.75 ± 0.16.

YRVVYRKNVDCTMYQFMSRR displayed an amyloid nucleation score of 0.539 ± 0.31.

Turning to YSARMLIRLSLLGFLPVSAP, the amyloid nucleation score was 0.711 ± 0.55.

In turn, YSCFDRAPRFETSVESCDMS registered an amyloid nucleation score of 0.093 ± 0.87.

Substance YSCGSIPYIRLVLKLIGYVI had an amyloid nucleation score of -0.016 ± 0.39.

On to YSCPNLIWA, for which the amyloid nucleation score was -0.424 ± 0.38.

With YSGCRTPDTVSVVTSTHAEY, the amyloid nucleation score entry was “inactive”.

The substance YSIFREW returned an amyloid nucleation score of -0.817 ± 0.53.

For the substance YSINTCCQLVIIDPGSSYEM, the amyloid nucleation score is 6.634 ± 0.047.

YSIYRINFPVIALHFTGHCV yielded an amyloid nucleation score of -0.902 ± 0.9.

Substance YSKWSISTFECMWAKNWRGD returned an amyloid nucleation score of 1.66 ± 0.39.

As for YSLVDTTLVILS, the amyloid nucleation score came out at 0.226 ± 0.36.

The substance YSNWSCLYCSKSL yielded an amyloid nucleation score of 7.552 ± 0.053.

Substance YSRIARLDVKRVGHEPDVRL had an amyloid nucleation score of -0.921 ± 2.4.
